Measurements taken from US20240360242A1 (KISOJI BIOTECHNOLOGY, published 2024).

T1: recombinant cynomolgus/Rhesus TROP2 full-length extracellular domain (cynomolgus/Rhesus, UniProt P09758 27-274 (human entry))
T1 construct: also called cynomolgus TROP2
T1 chain: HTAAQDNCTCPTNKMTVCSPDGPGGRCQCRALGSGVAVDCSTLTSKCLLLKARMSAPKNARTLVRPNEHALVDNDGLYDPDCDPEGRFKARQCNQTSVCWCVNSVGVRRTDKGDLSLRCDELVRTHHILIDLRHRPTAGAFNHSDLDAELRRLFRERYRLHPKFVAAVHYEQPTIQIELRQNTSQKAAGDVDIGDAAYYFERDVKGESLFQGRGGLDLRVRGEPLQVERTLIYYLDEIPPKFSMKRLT

T2: recombinant human TROP2 extracellular domain (aa 1-274) comprising His tag (human, UniProt P09758 27-274)
T2 construct: Used here for all assays on recombinant human TROP2 (ELISA, immunoblot, SPR, crystal), although only some of them name the catalogue number; also called human recombinant TROP2; recombinant human TROP2 protein; not shown: His tag
T2 sequence: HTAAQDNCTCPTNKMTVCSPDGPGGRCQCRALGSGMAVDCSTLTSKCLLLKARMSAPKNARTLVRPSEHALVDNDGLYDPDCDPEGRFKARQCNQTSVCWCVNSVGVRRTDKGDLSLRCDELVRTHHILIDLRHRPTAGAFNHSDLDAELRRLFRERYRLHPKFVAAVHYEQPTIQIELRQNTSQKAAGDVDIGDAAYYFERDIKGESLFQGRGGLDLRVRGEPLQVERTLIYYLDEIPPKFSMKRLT

T3: recombinant human IGFBP-1 (human, UniProt P08833 26-259)
T3 construct: also called rhIGFB-1
T3 sequence (looked up): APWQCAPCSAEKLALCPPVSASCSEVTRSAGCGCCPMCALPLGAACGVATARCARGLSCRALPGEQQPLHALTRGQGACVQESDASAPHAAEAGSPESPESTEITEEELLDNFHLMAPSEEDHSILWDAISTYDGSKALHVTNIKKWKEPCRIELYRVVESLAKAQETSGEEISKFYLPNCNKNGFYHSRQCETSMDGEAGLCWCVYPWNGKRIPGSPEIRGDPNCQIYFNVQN

T4: HEK-TROP2 Δ27-146 (human, UniProt P09758)
T4 construct: deletion of residues 27-146, transiently expressed on HEK cells
T4 sequence (membrane protein on transfected HEK cells, looked up): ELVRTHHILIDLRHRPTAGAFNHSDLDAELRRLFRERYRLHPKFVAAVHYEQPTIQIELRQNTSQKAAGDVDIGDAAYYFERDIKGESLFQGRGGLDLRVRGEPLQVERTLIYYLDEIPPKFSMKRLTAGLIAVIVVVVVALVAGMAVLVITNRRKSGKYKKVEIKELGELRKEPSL

T5: HEK-TROP2 Δ27-66 (human, UniProt P09758)
T5 construct: deletion of residues 27-66, transiently expressed on HEK cells
T5 sequence (membrane protein on transfected HEK cells, looked up): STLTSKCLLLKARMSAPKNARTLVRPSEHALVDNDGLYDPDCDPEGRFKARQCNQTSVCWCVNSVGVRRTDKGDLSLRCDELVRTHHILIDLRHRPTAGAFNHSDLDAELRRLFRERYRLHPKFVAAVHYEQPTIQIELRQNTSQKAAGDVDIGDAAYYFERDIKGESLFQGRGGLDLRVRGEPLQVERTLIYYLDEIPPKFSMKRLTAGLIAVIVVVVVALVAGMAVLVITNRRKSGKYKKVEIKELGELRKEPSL


Columns and labels:
[1] = target: T1, recombinant cynomolgus/Rhesus TROP2 …; test: SPR
[2] = target: T2, recombinant human TROP2 extracellular …; test: SPR
[3] = target: T3, recombinant human IGFBP-1; test: ELISA on coated recombinant protein, 200 nM antibody, RLU
[4] = target: T6, BSA (bovine, UniProt P02769); test: as above
T6 construct: also called bovine serum albumin

[5] = target: T4, HEK-TROP2 Δ27-146; test: flow cytometry, 100 nM antibody, transiently transfected HEK cells, APC anti-human Fc
In short: (§1)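 HEK parental cells transiently transfected (lipofectamine) with human TROP2 truncation mutants, harvested 24 h later and Fc-blocked 10 min at RT. Anti-TROP2 sdAbs at 100 nM bound 30 min on ice, then detected with APC anti-human Fc (30 min) and 7-AAD added for viability.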

[6] = target: T5, HEK-TROP2 Δ27-66; test: as above
In short: as §1

[7] = target: T2, recombinant human TROP2 extracellular …; test: competitive ELISA on coated recombinant human TROP2, competitor KD003-His (14285.7 pM per text), anti-His-HRP
Experimental: The epitope characterization was assessed by competitive ELISA (FIG. 8 and FIG. 9). Microplates were coated with human recombinant TROP2 at 4° C. overnight. After washing, plates were blocked with blocking buffer (PBS+2% BSA), for 1 hour at room temperature. Meanwhile, the dilution for anti-TROP2 VHH sdAbs was prepared with blocking buffer making two different dilutions depending on the tag. For sdAbs with His tag, the antibody was diluted to 28571.4 pM. For sdAbs without tag, antibodies were serially diluted from 2857142.9 pM to 0.29 pM (8 dilutions, 10×). After that, equal volume of the his-tagged sdAbs and serial diluted non-tagged sdAbs were mixed, to make the final concentration of his-tagged sdAbs 14285.7 pM and non-tagged sdAbs from 1428571.4 pM to 0.14 pM. After washing two times, the mixed antibody contents were added into the wells and the plates were incubated for 2 hours at room temperature. The HRP-conjugated anti-6× His was diluted to 1:5000 and added to the wells after washing three times. Any unbound conjugate was removed by washing after 1 hour incubation at room temperature, and the colorimetric reaction was performed by adding the same volume of Supersignal ELISA Pico Luminol/Enhancer and SuperSignal ELISA Pico Stable Peroxide Solution and detected on SpectraMax i3x Microplate Reader. Positive and negative controls were included in each plate.

T6 sequence (P02769 25-607 limits assumed): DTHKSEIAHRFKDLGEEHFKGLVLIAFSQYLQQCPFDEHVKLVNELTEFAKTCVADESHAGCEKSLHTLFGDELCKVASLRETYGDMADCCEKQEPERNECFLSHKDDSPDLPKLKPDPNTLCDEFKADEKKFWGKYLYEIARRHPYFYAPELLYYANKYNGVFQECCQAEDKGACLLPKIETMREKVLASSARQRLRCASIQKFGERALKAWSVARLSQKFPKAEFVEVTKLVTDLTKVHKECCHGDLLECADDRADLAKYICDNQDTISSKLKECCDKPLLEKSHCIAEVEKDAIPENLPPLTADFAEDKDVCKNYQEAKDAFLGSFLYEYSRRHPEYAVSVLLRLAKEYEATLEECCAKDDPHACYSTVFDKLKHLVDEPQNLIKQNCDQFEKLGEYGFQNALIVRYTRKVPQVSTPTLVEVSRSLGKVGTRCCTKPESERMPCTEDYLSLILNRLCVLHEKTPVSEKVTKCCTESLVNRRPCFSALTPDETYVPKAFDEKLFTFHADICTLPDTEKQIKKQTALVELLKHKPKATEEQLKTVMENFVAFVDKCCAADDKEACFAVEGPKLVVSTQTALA

| Kd [1] [nM] | Kd [2] [nM] | binding result [3] | binding result [4] | binding result [5] | binding result [6] | IC50 (read off the curve) [7] [nM] | Binder |
| --- | --- | --- | --- | --- | --- | --- | --- |
| 0.0811 | 0.0432 | no binding (tested: 200 nM) | no binding (tested: 200 nM) | no binding (tested: 100 nM) | no binding (tested: 100 nM) | ~60 | KD002 (antibody, human IgG1, V domains shown, also called anti-TROP2 sdAb KD002) VH: QVQLQESGGGMVQVGGSLRLSCAASGFPFSSADMSWVRQAPGKGPEWVSYINADGSKTYYPDSVKGRFTISRDNAKNTLYLLMNNLKPEDTALYRCARAKLTDTHYVEDYWGQGTQVTVSS |
| 0.169 | 0.0893 | no binding (tested: 200 nM) | no binding (tested: 200 nM) | no binding (tested: 100 nM) | no binding (tested: 100 nM) | ~30 | KD003 (antibody, human IgG1, V domains shown, also called anti-TROP2 sdAb KD003) VH: QVQLQESGGGMVQPGGSLRLSCAASGFTFSNYDMSWVRQAPGKGPEWVSYINAGGSNTDYPDSVKGRFTISRDNAKNMLYLLMNNLKPEDTALYRCARAKLTDTHYVEDYWGQGTQVTVSS |
| 0.0257 | 0.0826 | no binding (tested: 200 nM) | no binding (tested: 200 nM) | no binding (tested: 100 nM) | no binding (tested: 100 nM) | ~40 | KD001 (antibody, human IgG1, V domains shown, also called anti-TROP2 sdAb KD001) VH: QVQLQESGGGMVHPGGSLRLSCAASGFTFSGSDMSWVRQAPGKGPEWVSYITSGGTTYYPDSVKGRFTISRDNAKNTLYLQMNSLTPDDTALYRCAKARLTDSHYVEDAWGQGTQVTVSS |
| 0.0597 | 0.0268 | no binding (tested: 200 nM) | no binding (tested: 200 nM) | no binding (tested: 100 nM) | no binding (tested: 100 nM) | ~40 | KD005 (antibody, human IgG1, V domains shown, also called anti-TROP2 sdAb KD005) VH: QVQLQESGGGLVEAGGSLRLSCAASGFTFSGSDMSWVRQAPGKGPEWVSYITSGGTTYYPDSVKGRFTISRDNAKNTLYLQMNSLKPDDTALYRCAKSRLTDSHYVEDAWGQGTQVTVSS |
| 0.0358 | 0.0294 | no binding (tested: 200 nM) | no binding (tested: 200 nM) | no binding (tested: 100 nM) | no binding (tested: 100 nM) | ~40 | KD004 (antibody, human IgG1, V domains shown, also called anti-TROP2 sdAb KD004) VH: QVQLQESGGGLVQPGRSLRLSCAASGFTFSGSDMSWVRQAPGKGPEWVSYITGSGTTYYPDSVKGRFTTSRDNAKNMLYLQMNSLKPDDTALYRCAKARLTDSHYVEDAWGQGTQVTVSS |
